Experimental data reported in patent US11896644B2, “Inhibition of beta-arrestin oligomerization in tauopathy” (UNIVERSITY OF SOUTH FLORIDA, priority 2020, dated 2024).

Assays:
[1] = tested on: tau turnover in Hela-V5-tau cells; assay: Cycloheximide chase of tau turnover in Hela-V5-tau cells; format: cell-based; conditions: cycloheximide 100 μg/ml
Excerpt: FIGS. 4A to 4E show β-arrestin2 oligomerization is required for suppressing tau turnover. […] Data are shown as box plots or mean±SEM.
When DIV 18 tau P301S cortical primary neurons were transduced with either β-arrestin2 ΔIP6C or ΔIP6N lentivirus, an approximately 50% reduction in tau compared to control was evident (FIGS. 4A,4B), which represents a key finding relevant to both mechanism of action and potential therapeutic strategies. […] Also investigated was whether β-arrestin2 oligomerization is required for slowing tau turnover by disrupting oligomerization using these mutants in several models. […] To determine whether β-arrestin2 oligomerization status alters tau aggregation itself, filter-trap assays were performed from Hela-V5-tau cells transfected with β-arrestin2 variants, in which tau aggregates from detergent-soluble and-insoluble lysates were captured by cellulose acetate membranes and assessed by immunoblotting.

β-arrestin2 oligomers = β-arrestin2 oligomers (Rattus norvegicus, UniProt P29067); conditions: BRET and co-immunoprecipitation; cited from earlier work
GFP-p62 puncta = GFP-p62 puncta in Hela-V5-tau cells with/without bafilomycin A; format: cell-based; conditions: steady-state
Experimental: Data are shown as box plots or mean±SEM.
Given the effects on p62 autophagy flux, whether β-arrestin2 physically interacts with p62 was tested. […] Given that β-arrestin2 oligomeric mutants, ΔIP6C and ΔIP6N, reduced tau aggregates by slowing tau turnover, next tested was whether β-arrestin2 ΔIP6C and ΔIP6N mutants affect p62 self-association by a proximity ligation assays (PLA) as well as co-IP. […] Recent studies have shown that purified recombinant p62 spontaneously forms globular oligomers (Zaffagnini G, et al. (2018) EMBO J 37(5)). To test whether β-arrestin2 can directly affect p62 oligomerization in vitro, purified recombinant p62, β-arrestin2, and p62 mixed with β-arrestin2 with atomic force microscopy were visualized. Recombinant p62 spontaneously formed visible globular particles between 5-100 nm in diameter (FIG. 5K), whereas only very few small β-arrestin2 particles were visible under identical conditions (FIG. 5K). […] Next tested was whether β-arrestin2 oligomerization is required for bafilomycin A-induced p62 puncta formation. As expected, GFP-p62 puncta were increased upon bafilomycin A treatment in control vector transfected cells (FIGS. 5M,5N).

p62 = biological target: T1, p62 (Homo sapiens, UniProt Q13501); assay: Interaction of β-arrestin2 variants with p62 (flag/p62 PLA); format: cell-based; conditions: Hela-V5-tau cells
T1 construct: endogenous in cells; host or cells: Hela-V5-tau cells
Excerpt: FIGS. 12A to 12E show β-arrestin2 interacts with p62, and β-arrestin2 oligomerization inhibits p62 self-interaction. FIG. 12A contains representative confocal images of mCherry and EGFP in Hela-V5-tau cells transfected with mCherry-GFP-p62 together with control vector, β-arrestin2-flag, or β-arrestin2 ΔIP6N-flag (Scale bar=10 μm). […] The box and whisker plots show all data points, and the box plots show all data points, the median and IQR, and the minimal and maximal values. FIG. 12C contains representative immunoblots of indicated proteins from Hela-V5-tau cells transfected GFP or GFP-β-arrestin2 with/without HA-p62. Note that β-arrestin2 is present in HA immune complexes only in the presence of HA-p62, whereas β-arrestin2 is not detected in control IgG beads. […] Lysates were subjected to IP for HA. […] FIG. 12F show quantification of flag/p62 PLA puncta/cell (N=4 independent experiments, #P<0.0001).
Given the effects on p62 autophagy flux, whether β-arrestin2 physically interacts with p62 was tested. […] Given that β-arrestin2 oligomeric mutants, ΔIP6C and ΔIP6N, reduced tau aggregates by slowing tau turnover, next tested was whether β-arrestin2 ΔIP6C and ΔIP6N mutants affect p62 self-association by a proximity ligation assays (PLA) as well as co-IP. […]

[2] = biological target: T2, β-arrestin2-flag and β-arrestin2-myc interaction (Rattus norvegicus, UniProt P29067); assay: PLA of β-arrestin2-flag and β-arrestin2-myc interaction in presence of mutants; format: cell-based; conditions: Hela-V5-tau cells
T2 construct: expressed in transfected cells; host or cells: Hela V5-tau cells
Experimental: The assay was performed using commercially available reagents (Duolink, Sigma-Aldrich, St Louis, MO), with transfection of Hela V5-tau cells with WT β-arrestin2-flag and β-arrestin2-myc, without and with the mutant β-arrestin2 ΔIP6C or β-arrestin2 ΔIP6N constructs. Cells were fixed with 4% paraformaldehyde for 15 min at room temperature and washed with 0.2% triton in TBS. After washing, cells were blocked with 0.2% Triton in 3% Normal goat serum for 1 hour at room temperature. After applying primary antibodies overnight at 4° C., cells were washed and incubated with the PLA probes at 37° C. (1 h), washed with buffer A, incubated with ligation solution at 37° C. (30 min), washed with washing buffer A, incubated with amplification solution at 37° C. […]
When DIV 18 tau P301S cortical primary neurons were transduced with either β-arrestin2 ΔIP6C or ΔIP6N lentivirus, an approximately 50% reduction in tau compared to control was evident (FIGS. 4A,4B), which represents a key finding relevant to both mechanism of action and potential therapeutic strategies. […] To determine whether β-arrestin2 oligomerization status alters tau aggregation itself, filter-trap assays were performed from Hela-V5-tau cells transfected with β-arrestin2 variants, in which tau aggregates from detergent-soluble and-insoluble lysates were captured by cellulose acetate membranes and assessed by immunoblotting.

[3] = biological target: T3, βarrestin1 homo-oligomers (Homo sapiens, UniProt P49407); assay: PLA for βarrestin1 homo-oligomers in HeLa-V5-tau cells; format: cell-based
T3 construct: expressed in transfected cells; host or cells: HeLa-V5-tau cells
Excerpt: FIGS. 24A to 24D show β-arrestin2 oligomerization mutants impair β-arrestin1 homo-oligomers and β-arrestin1/β-arrestin2 hetero-oligomers. HeLa-V5-tau cells were co-transfected with vector control or β-arrestin2 oligomerization mutants (ΔIP6C or ΔIP6N) together with βarrestin1-GFP+βarrestin1-myc or βarrestin2-myc. Cells were then subjected to proximity ligation assay (PLA) using antibodies against GFP and mycto detect βarrestin1 homo-oligomers (FIGS. 24A,24B) and βarrestin1/βarrestin2 hetero-oligomers and DAPI staining (FIGS. 24C,24D) (puncta).

T2 sequence (P29067 whole entry): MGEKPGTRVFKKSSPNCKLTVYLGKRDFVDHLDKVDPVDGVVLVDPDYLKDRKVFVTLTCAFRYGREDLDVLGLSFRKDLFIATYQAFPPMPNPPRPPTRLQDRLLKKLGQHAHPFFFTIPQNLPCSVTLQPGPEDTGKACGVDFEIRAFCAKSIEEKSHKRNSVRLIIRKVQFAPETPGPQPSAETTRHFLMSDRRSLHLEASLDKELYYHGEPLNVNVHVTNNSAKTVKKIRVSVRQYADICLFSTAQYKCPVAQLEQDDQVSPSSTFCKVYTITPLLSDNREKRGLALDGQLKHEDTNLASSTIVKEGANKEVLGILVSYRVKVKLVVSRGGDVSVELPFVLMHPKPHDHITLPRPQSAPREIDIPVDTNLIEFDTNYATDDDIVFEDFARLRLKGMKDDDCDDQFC
Sequence of β-arrestin2 oligomers (P29067 whole entry): as above
T3 sequence (P49407 whole entry): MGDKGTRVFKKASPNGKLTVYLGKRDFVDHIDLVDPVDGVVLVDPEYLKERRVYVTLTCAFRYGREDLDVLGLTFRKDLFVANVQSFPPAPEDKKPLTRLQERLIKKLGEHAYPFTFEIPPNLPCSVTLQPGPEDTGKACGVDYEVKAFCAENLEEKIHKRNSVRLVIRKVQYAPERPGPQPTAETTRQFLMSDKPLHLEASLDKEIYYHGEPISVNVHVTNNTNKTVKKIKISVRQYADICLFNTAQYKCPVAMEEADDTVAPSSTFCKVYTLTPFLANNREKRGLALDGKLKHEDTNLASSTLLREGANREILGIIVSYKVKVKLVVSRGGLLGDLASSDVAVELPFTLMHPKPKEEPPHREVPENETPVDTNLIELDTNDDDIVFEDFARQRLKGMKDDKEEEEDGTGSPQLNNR
T3 sequence (P49407 whole entry): as above

B1: β-arrestin2 ΔIP6N: β-arrestin2 N-terminal domain mutant (K158A, K161A, and R162A), incapable of forming oligomers; dominant negative (protein, UniProt P32121 1-409, looked up, variant K158A K161A R162A)
Beta-arrestin-2: MGEKPGTRVFKKSSPNCKLTVYLGKRDFVDHLDKVDPVDGVVLVDPDYLKDRKVFVTLTCAFRYGREDLDVLGLSFRKDLFIATYQAFPPVPNPPRPPTRLQDRLLRKLGQHAHPFFFTIPQNLPCSVTLQPGPEDTGKACGVDFEIRAFCAKSLEEASHAANSVRLVIRKVQFAPEKPGPQPSAETTRHFLMSDRSLHLEASLDKELYYHGEPLNVNVHVTNNSTKTVKKIKVSVRQYADICLFSTAQYKCPVAQLEQDDQVSPSSTFCKVYTITPLLSDNREKRGLALDGKLKHEDTNLASSTIVKEGANKEVLGILVSYRVKVKLVVSRGGDVSVELPFVLMHPKPHDHIPLPRPQSAAPETDVPVDTNLIEFDTNYATDDDIVFEDFARLRLKGMKDDDYDDQLC
modifications: GFP or YFP tag
notes: dominant negative
tau turnover in cycloheximide chase [1]: enhancement of tau turnover
oligomer formation (β-arrestin2 oligomers): incapable of forming oligomers
GFP-p62 puncta (GFP-p62 puncta): increased GFP-p62 puncta at steady-state
interaction with p62 compared to β-arrestin2 (p62): much less interaction with p62
β-arrestin2-flag and β-arrestin2-myc interaction (PLA) [2]: significantly reduced
βarrestin1 homo-oligomers (PLA puncta) [3]: significantly reduce
